Experimental data from PMC10889554.

Legend:
[1] = target: human cathepsin K (human) (UniProt P43235)
[2] = target: human cathepsin L (human)
[3] = target: human cathepsin V (human) (UniProt O60911)
[4] = target: human cathepsin K (human) (UniProt P43235); remark: listed apart in the source
[5] = target: human cathepsin K (human) (UniProt P43235); experiment: enzyme inhibition kinetics (fluorogenic peptide substrate activity assay); inhibitor preincubated with protease 15 min, 37 °C; IC50 from residual velocities, Ki by the Cheng-Prusoff equation; 50 mM sodium acetate pH 5.5, 0.1% polyethylene glycol 1500, 2.5 mM dithiothreitol (cathepsins L, K, V, B, F, C and papain; 50 mM NaCl for cathepsin C)
[6] = target: human cathepsin L (human); experiment: as above
[7] = target: human cathepsin V (human) (UniProt O60911); experiment: as above

Chain of human cathepsin V (human) (O60911 114-334): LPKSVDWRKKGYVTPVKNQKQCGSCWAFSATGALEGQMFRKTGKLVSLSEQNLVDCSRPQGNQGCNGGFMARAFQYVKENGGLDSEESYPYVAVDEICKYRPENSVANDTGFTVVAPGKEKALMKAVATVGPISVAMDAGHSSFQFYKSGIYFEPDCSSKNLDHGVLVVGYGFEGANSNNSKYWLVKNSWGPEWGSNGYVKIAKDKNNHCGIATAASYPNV
Chain of human cathepsin K (human) (P43235 115-329): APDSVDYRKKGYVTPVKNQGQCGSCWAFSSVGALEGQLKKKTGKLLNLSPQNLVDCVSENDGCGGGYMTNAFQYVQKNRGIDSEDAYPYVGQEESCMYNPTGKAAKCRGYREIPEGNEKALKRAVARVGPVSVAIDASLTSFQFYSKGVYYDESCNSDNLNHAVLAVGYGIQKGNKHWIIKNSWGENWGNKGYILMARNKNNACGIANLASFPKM

Ir-thyropin (IrThy), recombinant full-length mature protein (natural protein)
% inhibition of cathepsin K activity by IrThy with chondroitin-4-sulfate at 10 µg/mL [1]: 16%
% inhibition of cathepsin K activity by IrThy with chondroitin-6-sulfate at 10 µg/mL [1]: 23%
% inhibition of cathepsin K activity by IrThy, no GAG, pH 5.5 [1]: 50%
change of % inhibition of cathepsin L activity by IrThy with GAGs at 10 µg/mL [2]: < 15%
% inhibition of cathepsin V activity by IrThy, no GAG, pH 5.5 [3]: 25%
reduction of inhibition of cathepsin K activity by IrThy with 0.3 M NaCl, without heparin [4]: 20%
Ki [5]: 56.9 nM
Ki [6]: 201 nM
Ki [7]: 34.7 nM

IrThy-Cd, recombinant C-terminal Tg1 domain of IrThy (domain or fragment)
Ki [5]: 53.1 nM
Ki [6]: 795 nM
Ki [7]: 40.7 nM
